# Assay results as given in IntAct's records for PubMed 24115911.
# B1: Urease accessory protein UreF (Helicobacter pylori), Q09065 (parent)
# chain: MDKGKSVKSTEKSVGMPPKTPKTDNNAHVDNEFLILQVNDAVFPIGSYTHSFGLETYIQQKKVTNKESALEYLKANLSSQFLYTEMLSLKLTYESALQQDLKKILGVEEVIMLSTSPMELRLANQKLGNRFIKTLQAMNELDMGEFFNAYAQKTKDPTHATSYGVFAASLGIELKKALRHYLYAQTSNMVINCVKSVPLSQNDGQKILLSLQSPFNQLIEKTLELDESHLCTASVQNDIKAMQHESLYSRLYMS
# Variants of: B1
# Conditions: with ureg_helpy ureG
row,Variant,effect of a mutation on the interaction
1,R179A;Y183D,disrupting interaction strength
